According to US20180037644A1 (Pfizer, published 2018):

T1: wild-type cynomolgus monkey IL-33 (cynomolgus monkey)
T1 construct: Used reduced (DTT-treated); His6 in the entry; also called cyno IL-33 (WT + DTT); pfe cyno WT IL-33
T1 chain: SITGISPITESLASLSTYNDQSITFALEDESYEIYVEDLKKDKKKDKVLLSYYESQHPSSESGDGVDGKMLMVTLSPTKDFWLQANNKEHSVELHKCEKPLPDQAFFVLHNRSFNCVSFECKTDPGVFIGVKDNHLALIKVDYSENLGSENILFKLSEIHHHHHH

T2: human IL-33 (mm2) (human, UniProt O95760 112-270)
T2 construct: Variant in which all four cysteine residues are serine; the entry carries an N-terminal Met and a C-terminal His6; Biotinylated in some assays; also called hIL-33 (mm2); huIL-33 (mm2)
T2 chain: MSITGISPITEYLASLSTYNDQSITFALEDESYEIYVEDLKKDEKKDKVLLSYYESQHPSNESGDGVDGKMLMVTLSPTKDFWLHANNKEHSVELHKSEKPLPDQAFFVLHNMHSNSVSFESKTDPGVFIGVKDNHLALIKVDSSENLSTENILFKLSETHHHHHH

T3: human IL-33 WT, reduced with DTT (human, UniProt O95760 112-270)
T3 construct: Wild-type cysteines, FLAG tag in the entry; reduced with 3 mM DTT before use; also called huIL33 wt; hu IL-33 (WT + DTT)
T3 sequence: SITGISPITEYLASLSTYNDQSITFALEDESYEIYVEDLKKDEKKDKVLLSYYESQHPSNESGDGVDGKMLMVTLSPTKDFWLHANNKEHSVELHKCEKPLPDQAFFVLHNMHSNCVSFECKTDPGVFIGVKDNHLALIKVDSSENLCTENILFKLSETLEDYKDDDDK

T4: cynomolgus monkey IL-33 (cys mut) (cynomolgus monkey)
T4 construct: Variant in which the three cysteine residues are serine; N-terminal Met and C-terminal His6 in the entry; also called cyno IL-33; cyno IL-33 (cys mut)
T4 chain: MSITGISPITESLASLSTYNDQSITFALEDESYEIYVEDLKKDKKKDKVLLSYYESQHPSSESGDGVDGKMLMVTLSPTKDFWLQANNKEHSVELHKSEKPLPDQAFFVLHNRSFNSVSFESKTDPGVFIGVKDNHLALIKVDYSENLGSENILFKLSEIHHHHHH

T5: IL-1α (UniProt P01583 113-271)
T5 sequence (looked up): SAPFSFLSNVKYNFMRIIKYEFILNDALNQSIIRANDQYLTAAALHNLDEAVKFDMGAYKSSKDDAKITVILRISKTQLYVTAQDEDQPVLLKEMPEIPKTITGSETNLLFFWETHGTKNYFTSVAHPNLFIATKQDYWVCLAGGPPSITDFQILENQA

T6: IL-18 (UniProt Q14116 37-193)
T6 sequence (looked up): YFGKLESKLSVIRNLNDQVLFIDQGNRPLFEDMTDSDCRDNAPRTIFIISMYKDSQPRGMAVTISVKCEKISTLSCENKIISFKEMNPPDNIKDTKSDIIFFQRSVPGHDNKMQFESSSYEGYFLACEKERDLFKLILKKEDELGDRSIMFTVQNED

T7: IL-36α (UniProt Q9UHA7 6-158)
T7 sequence (looked up): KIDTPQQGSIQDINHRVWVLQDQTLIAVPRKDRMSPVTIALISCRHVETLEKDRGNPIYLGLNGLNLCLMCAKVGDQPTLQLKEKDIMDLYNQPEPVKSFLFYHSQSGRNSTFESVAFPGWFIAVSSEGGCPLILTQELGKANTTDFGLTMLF

T8: IL-36γ (UniProt Q9NZH8 18-169)
T8 sequence (looked up): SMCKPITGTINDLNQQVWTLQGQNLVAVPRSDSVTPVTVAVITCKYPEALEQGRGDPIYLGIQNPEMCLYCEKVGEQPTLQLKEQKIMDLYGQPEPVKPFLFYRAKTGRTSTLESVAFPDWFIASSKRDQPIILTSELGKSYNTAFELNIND


Tests used:
[1] = biological target: T1, wild-type cynomolgus monkey IL-33; assay: SPR, Experiment 1; reference: human IL-33 (WT + DTT)
Description: (§1) Biacore kinetic assays were conducted at 37° C. at a collection rate of 1 Hz on a Biacore T200 instrument (GE Healthcare). Reduced and non-reduced wild-type human IL-33 and reduced wild-type cynomolgus monkey IL-33 were covalently coupled to a CM5 sensor chip (catalogue number BR100530, GE Healthcare) using an amine coupling kit (catalogue number BR100050, GE Healthcare) according to the manufacturer's protocol. Flow cell 1 was activated and blocked for use as a reference flow cell. […] The dilution and running buffer was HBS-EP+(10 mM HEPES pH 7.4, 0.15M NaCl, 3 mM EDTA, 0.05% P-20). Rate constants and affinities were determined by fitting the resulting sensorgram data to a 1:1 model in Biacore T200 Evaluation software version 1.0 (GE Healthcare). […] Kinetic properties of the bivalent IgG cannot be directly compared to those of monovalent Fab fragments and are not presented here.

[2] = biological target: T1, wild-type cynomolgus monkey IL-33; assay: SPR, Experiment 2; reference: human IL-33 (WT + DTT)
Description: as §1

human IL-33 (mm2) = biological target: T2, human IL-33 (mm2); assay: SPR, IL-33 amine-coupled to CM5, Fab in solution, 37 C
Description: (§2) Biacore kinetic assays were conducted at 37° C. at a collection rate of 1 Hz on a Biacore T200 instrument (GE Healthcare). Human IL33 (mm2), cynomolgus monkey IL-33, and reduced huIL33 wt were covalently coupled to a CM5 sensor chip (catalogue number BR100530, GE Healthcare) using an amine coupling kit (catalogue number BR100050, GE Healthcare) according to the manufacturer's protocol. […] The dilution and running buffer was HBS-EP+(10 mM HEPES pH 7.4, 0.15M NaCl, 3 mM EDTA, 0.05% P-20). Rate constants and affinities were determined by fitting the resulting sensorgram data to a 1:1 model in Biacore T200 Evaluation software version 1.0 (GE Healthcare).

[3] = biological target: T3, human IL-33 WT, reduced with DTT; assay: as above
Description: as §2

[4] = biological target: T4, cynomolgus monkey IL-33 (cys mut); assay: as above
Description: as §2

[5] = biological target: T3, human IL-33 WT, reduced with DTT; assay: SPR, IL-33 amine-coupled to CM5, Fab in solution, 37 C, Experiment 1
Description: as §1

[6] = biological target: T1, wild-type cynomolgus monkey IL-33; assay: as above
Description: as §1

[7] = biological target: T3, human IL-33 WT, reduced with DTT; assay: SPR, IL-33 amine-coupled to CM5, Fab in solution, 37 C, Experiment 2
Description: as §1

[8] = biological target: T1, wild-type cynomolgus monkey IL-33; assay: as above
Description: as §1

IL-1α = biological target: T5, IL-1α; assay: SPR (Biacore T200), Fab captured on the chip, cytokine injected
Description: (§3) The panel of cytokines included IL-1α, IL-1β, IL-18, IL-36α, and IL-36γ.

IL-1β = IL-1β (UniProt P01584 117-269); assay: as above
Description: as §3

IL-18 = biological target: T6, IL-18; assay: as above
Description: as §3

IL-36α = biological target: T7, IL-36α; assay: as above
Description: as §3

IL-36γ = biological target: T8, IL-36γ; assay: as above
Description: as §3

| Ratio of cynomolgus monkey KD/human KD [1] | Ratio of cynomolgus monkey KD/human KD [2] | Kd (human IL-33 (mm2)) [pM] | koff (human IL-33 (mm2)) [s⁻¹] | kon (human IL-33 (mm2)) [M⁻¹ s⁻¹] | Kd [3] [pM] | koff [3] [s⁻¹] | kon [3] [M⁻¹ s⁻¹] | Kd [4] [pM] | koff [4] [s⁻¹] | kon [4] [M⁻¹ s⁻¹] | Kd [5] [pM] | koff [5] [s⁻¹] | kon [5] [M⁻¹ s⁻¹] | Kd [6] [pM] | koff [6] [s⁻¹] | kon [6] [M⁻¹ s⁻¹] | Kd [7] [pM] | koff [7] [s⁻¹] | kon [7] [M⁻¹ s⁻¹] | Binder | further results |
| --- | --- | --- | --- | --- | --- | --- | --- | --- | --- | --- | --- | --- | --- | --- | --- | --- | --- | --- | --- | --- | --- |
| 1.3 | 2.3 | 13 | 3.09e-05 | 2.42e+06 | 69.6 | 0.000129 | 1.86e+06 | 10.4 | 1.71e-05 | 1.64e+06 | 106 | 0.00033 | 3.13e+06 | 139 | 0.00062 | 4.5e+06 | 101 | 0.000417 | 4.11e+06 | IL33-158LS Fab (Fab, V domains shown) VH: EVQLVESGGGLVQPGGSLRLSCAASGFTFSSYWMYWVRQAPGKGLEWVAAITPNAGEDYYPESVKGRFTISRDNAKNSLYLQMNSLRAEDTAVYYCARGHYYYTSYSLGYWGQGTLVTVSS VL: DIQMTQSPSSLSASVGDRVTITCKASQNINKHLDWYQQKPGKAPKLLIYFTNNLQTGVPSRFSGSGSGTDFTLTISSLQPEDFATYYCFQYNQGWTFGGGTKVEIKR | Kd [8]: 228 pM; koff [8]: 0.00121 s⁻¹; kon [8]: 5.32e+06 M⁻¹ s⁻¹; binding result (IL-1α): no binding; binding result (IL-1β): no binding; binding result (IL-18): no binding; binding result (IL-36α): no binding; binding result (IL-36γ): no binding |
| 1.5 | 2.5 | 10.1 | 4.8e-05 | 4.75e+06 | 45.2 | 6.56e-05 | 1.45e+06 | 13.4 | 2.09e-05 | 1.57e+06 | 91 | 0.000276 | 3.03e+06 | 139 | 0.000665 | 4.81e+06 | 89 | 0.00035 | 3.96e+06 | IL33-167LS Fab (Fab, V domains shown) VH: EVQLVESGGGLVQPGGSLRLSCAASGFTFSSYWMYWVRQAPGKGLEWVASITPNAGEDYYPDSVKGRFTISRDNAKNSLYLQMNSLRAEDTAVYYCARGHYYYTSYSLGYWGQGTLVTVSS VL: DIQMTQSPSSLSASVGDRVTITCKASQNINKHLDWYQQKPGKAPKLLIYFTNNLQTGVPSRFSGSGSGTDFTLTISSLQPEDFATYYCFQYNNGWTFGGGTKVEIKR | Kd [8]: 218 pM; koff [8]: 0.00119 s⁻¹; kon [8]: 5.5e+06 M⁻¹ s⁻¹ |
